Measured values: patent publication KR20120135868A (dated 2012)

T1: 인간 FcεRI의 α 서브유니트(FcεRIα)의 가용성 단편 (human, UniProt P12319 26-205, limits assumed)
T1 construct: domain: 가용성 단편 (soluble fragment); also called soluble sFcεRI; sFcεRI
T1 sequence (looked up): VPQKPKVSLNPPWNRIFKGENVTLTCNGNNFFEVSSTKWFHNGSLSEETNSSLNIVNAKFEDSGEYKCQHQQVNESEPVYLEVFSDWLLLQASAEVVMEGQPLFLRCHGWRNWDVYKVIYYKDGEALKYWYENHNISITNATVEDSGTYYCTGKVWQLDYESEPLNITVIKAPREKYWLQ

B1: NPB 304 scFv (scFv, V domains shown)
VH: EVQLLESGGGLVQPGGSLRLSCAASGLAFSDYYMSWVRLAPGKGLEWVSVISPGSGSKYYADSVKGRFTISRDNSKNTLYLQMNSLRAEDTAVYYCARYVGGMMMKRDFYYAMDVWGQGTLVTVSS
VL: QSVLTQPPSASGTPGQRVTISCSGSSSNIGSNAVNWYQQLPGTAPKLLIYYDSHRPSEVPDRFSGSKSGTSASLAISGLRSEDEADYYCGTWDSSLSGYVFGGGTKLTVL
B2: NPB 305 scFv (scFv, V domains shown)
VH: EVQLLESGGGLVQPGGSLRLSCAASGLAFSDYYMSWVRLAPGKGLEWVSVISPGSGSKYYADSVKGRFTISRDNSKNTLYLQMNSLRAEDTAVYYCARYVGGMMMKRDFYYAMDVWGQGTLVTVSS
VL: QSVLTQPPSASGTPGQRVTISCTGSSSNIGNNDVSWYQQLPGTAPKLLIYSNNQRPSGVPDRFSGSKSGTSASLAISGLRSGDEADYYCGTWDYSLSGYVFGGGTKLTVL
B3: NPB 314 scFv (scFv, V domains shown)
VH: EVQLVQSGAEVKKPGESLKISCKGSGYTFTKYWIGWVRQMPGKGLEWMGIIYPGDSDTTYSPSFQGQVTISADKSISTAYLQWSSLKASDTAMYYCAKDNPFTGSFDIWGQGTMVTVSS
VL: QSALTQPASMSGFPGQSITISCTGTRDDVGNYDLVSWYQQQPAKAPKLLIYEDNKRPSGVSSRFSGSKSGSTASLTISGLQTEDEADYYCCSYAGDYTYVFGTGTKVTVL
B4: NPB 307 scFv (scFv, V domains shown)
VH: EVQLVQSGAEVKKSGESLKISCKGFGYRFTSYWIGWVRQMPGKGLEWMGIIYPGDSDTRYSPSFQGQVTISADKSISTAYLQWSSLKASDTAMYYCAKDNPFTGSFDIWGLGTMVTVSS
VL: QSALTQPRSVSGSPGQSVTISCTGTSNDVGGYTYVSWYQQHPGKAPKLMIYDVSKRPSGVPDRFSGSKSGNTASLTISGLQAEDEADYYCSSYAGSYTWVFGGGTKLTVL
B5: NPB 308 scFv (scFv, V domains shown)
VH: EVQLVQSGAEVKKPGESLKISCKGSGYTFTKYWIGWVRQMPGKGLEWMGIIYPGDSDTTYSPSFQGQVTISADKSISTAYLQWSSLKASDTAMYYCAKDNPFTGSFDIWGQGTMVTVSS
VL: QSALTQPRSVSGSPGQSVTISCTGTSNDVGGYTYVSWYQQHPGKAPKLMIYDVSKRPSGVPDRFSGSKSGNTASLTISGLQAEDEADYYCSSYAGSYTWVFGGGTKLTVL
B6: NPB 312 scFv (scFv, V domains shown)
VH: EVQLVQSGAEVKKPGESLKISCEGSGYRFSSYWIAWVRQKPGKGLEWMGIIYPYDSDTKYGPSFGGQVTISADKSINTAYLEWSSLKASDTAMYYCARLALIRGSIIFDYWGLGTLVTVSS
VL: QSALTQPRSVSGSPGQSVTISCTGSRGDVGGYDFVSWYRQYPGEAPQLIIYDVSGRPSGVPDRFSGSKSGNTASLTISGLQPEDEADYYCSSYAGSEIYVFGTGTKVTVL
B7: NPB 309 scFv (scFv, V domains shown)
VH: EVQLVQSGAEVKKPGESLKISCEGSGYRFSSYWIAWVRQKPGKGLEWMGIIYPYDSDTKYGPSFGGQVTISADKSINTAYLEWSSLKASDTAMYYCARLALIRGSIIFDYWGLGTLVTVSS
VL: QSVLTQPSSVSGAPGQRVTISCTGSSSNIGADYDVHWYQLVSGAAPKLLIYGYTNRPSGVPDRFSGSKSGTSASLVIAGLQAEDEADYYCQSYDSSLSEVVFGGGTKLTVL
B8: NPB 306 scFv (scFv, V domains shown)
VH: EVQLVQSGAEVKKPGESLKISCEGSGYRFSSYWIAWVRQKPGKGLEWMGIIYPYDSDTKYGPSFGGQVTISADKSINTAYLEWSSLKASDTAMYYCARLALIRGSIIFDYWGLGTLVTVSS
VL: QSVLTQPSSVSGAPGQRVTISCTGSSSNIGAGYDVHWYQHLPGTAPKLLIYGINIRPSGVPDRFSGSKSDTSASLAITALQAEDEADYYCQSYDSSLRSVVFGGGTKLTVL
B9: NPB 303 scFv (scFv, V domains shown)
VH: EVQLVQSGAEVKKSGESLKISCKGFGYTFTRNWIGWVRQMPGKGLEWMGIIYPGDSDTRYSPSFQGQVTISADKSISTAYLQWSSLKASDTAMYYCARDVGNGDYGLDVWGQGTTVTVSS
VL: QSALTQPASVSGSPGQSITISCTGTSSDIGGYDFVSWYQQHPGKAPKLIIYDVTRRPSEISNRFSASKSGNTASLTISGLQAEDEADYYCSSYTSSSTPYVFGTGTKVTVL
B10: NPB 302 scFv (scFv, V domains shown)
VH: EVQLVESGAEVKKPGSSVKVSCKASGGTFSSYAISWVRQAPGQGLEWMGRIIPILGIANYAQKFQGRVTITADKSTSTAYMELSSLRSEDTAVYYCARVNPFGYYYAMDVWGQGTTVTVSS
VL: QSVLTQPPSASGTPGQRVTISCSGSTSNIGGNSVNWYQQLPGAAPKLLIYANIQRPSGVPDRFSGSKSGTSASLAISGLQSEDEADYYCASWDDSRNGYVFGTGTKVTVL
B11: NPB 313 scFv (scFv, V domains shown)
VH: EVQLVQSGAEVKKPGSSVKVSCKASGGTFSSYAISWVRQAPGQGLEWMGRIIPILGIANYAQKFQGRVTITADKSTSTAYMELSSLRSEDTAVYYCARVNPFGYYYAMDVWGQGTTVTVSS
VL: DIQMTQSPSSVSASVGDRVTIPCRASQGISSWLAWYQQKPGKAPKLLIYAASNLQSGVPSRFSGSGSGTDFTLTISSLQPEDSATYYCQQTDSFPLTFGGGTKVEIK

Target: T1, 인간 FcεRI의 α 서브유니트(FcεRIα)의 가용성 단편
Assay: phage ELISA, scFv on phage, selected after panning on coated FcεRI

Binding result, binds:
B1, B2, B3, B4, B5, B6, B7, B8, B9, B10, B11
